Results published in paper PMC4671958, “Structure of the Helicase Domain of DNA Polymerase Theta Reveals a Possible Role in the Microhomology-Mediated End-Joining Pathway” (Structure(London, England:1993), 2015).
Values joined by “and” are separate entries in the source; they are usually repeats but may differ in a detail not shown here. Equal values may be shown once.

Key:
[1] = target: the molecule itself; experiment: SEC-MALS; Viscotek TDA 305 system, Shodex KW-803 silica column; in the absence of nucleotide
[2] = target: the molecule itself; experiment: AUC; sedimentation velocity, absorbance (280 nm) and interference optics; in the absence of nucleotide

B1: DNA polymerase theta helicase domain (Polθ-HLD), residues 67–894 (domain or fragment, human, UniProt O75417 67-894, looked up)
chain: DKLLLANWGLPKAVLEKYHSFGVKKMFEWQAECLLLGQVLEGKNLVYSAPTSAGKTLVAELLILKRVLEMRKKALFILPFVSVAKEKKYYLQSLFQEVGIKVDGYMGSTSPSRHFSSLDIAVCTIERANGLINRLIEENKMDLLGMVVVDELHMLGDSHRGYLLELLLTKICYITRKSASCQADLASSLSNAVQIVGMSATLPNLELVASWLNAELYHTDFRPVPLLESVKVGNSIYDSSMKLVREFEPMLQVKGDEDHVVSLCYETICDNHSVLLFCPSKKWCEKLADIIAREFYNLHHQAEGLVKPSECPPVILEQKELLEVMDQLRRLPSGLDSVLQKTVPWGVAFHHAGLTFEERDIIEGAFRQGLIRVLAATSTLSSGVNLPARRVIIRTPIFGGRPLDILTYKQMVGRAGRKGVDTVGESILICKNSEKSKGIALLQGSLKPVRSCLQRREGEEVTGSMIRAILEIIVGGVASTSQDMHTYAACTFLAASMKEGKQGIQRNQESVQLGAIEACVMWLLENEFIQSTEASDGTEGKVYHPTHLGSATLSSSLSPADTLDIFADLQRAMKGFVLENDLHILYLVTPMFEDWTTIDWYRFFCLWEKLPTSMKRVAELVGVEEGFLARCVKGKVVARTERQHRQMAIHKRFFTSLVLLDLISEVPLREINQKYGCNRGQIQSLQQSAAVYAGMITVFSNRLGWHNMELLLSQFQKRLTFGIQRELCDLVRVSLLNAQRARVLYASGFHTVADLARANIVEVEVILKNAVPFKSARKAVDEEEEAVEERRNMRTIWVTGRKGLTEREAAALIVEEARMILQQDLVEM
notes: DNA polymerase theta (Polθ, POLQ gene), human, helicase domain, residues 67–894; printed monomer mass 93,080 Da; Tetramer in crystals (by crystallographic symmetry) and in solution; Further construct details may stand in the Supplemental Experimental Procedures; also called Polθ helicase domain; 67–894 construct
stoichiometry N [1]: ~4
stoichiometry N [2]: 4 and 3.2
